# Measured values: the supplement of paper PMC9112550, “Optimization of the antimicrobial peptide Bac7 by deep mutational scanning” (BMC Biology, 2022)
# Tested on: Escherichia coli TOP10
# Test: shrunken log2 fold change of peptide-encoding DNA abundance (4.5 h post-induction vs induction); higher = less antimicrobial activity (less host growth inhibition)
# Settings: time post-induction: 4.5 h; library: site-saturation at positions 5, 18, 19, 20
# 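Note: peptides expressed intracellularly from a pBAD plasmid library in pooled LB shake-flask culture, induced with 0.3% L-arabinose, DNA abundance read by NGS, three biological replicates, DESeq2 with apeglm shrinkage.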
row,Sequence,shrunken log2 fold change
1,RRIRTRPPRLPRPRPRPPAHPRP,0.252
2,RRIRWRPPRLPRPRPRPVWVPRP,0.257
3,RRIRERPPRLPRPRPRPLQCPRP,-0.254
4,RRIRVRPPRLPRPRPRPAHIPRP,-0.0203
5,RRIRARPPRLPRPRPRPSCRPRP,0.248
6,RRIRLRPPRLPRPRPRPMQWPRP,0.0515
7,RRIRCRPPRLPRPRPRPTAFPRP,0.0759
8,RRIRSRPPRLPRPRPRPVHEPRP,-0.185
9,RRIRVRPPRLPRPRPRPDWEPRP,0.00682
10,RRIRMRPPRLPRPRPRPPMWPRP,-0.0434
11,RRIRRRPPRLPRPRPRPTWCPRP,0.0593
12,RRIRPRPPRLPRPRPRPLGPPRP,0.153
13,RRIRTRPPRLPRPRPRPITLPRP,-0.162
14,RRIRQRPPRLPRPRPRPRNVPRP,-0.0777
15,RRIRQRPPRLPRPRPRPKLQPRP,1.59
16,RRIRTRPPRLPRPRPRPVRWPRP,0.774
17,RRIRPRPPRLPRPRPRPMDWPRP,0.432
18,RRIRKRPPRLPRPRPRPVGIPRP,0.131
19,RRIRIRPPRLPRPRPRPSFNPRP,-0.838
20,RRIRCRPPRLPRPRPRPCINPRP,-0.0741
21,RRIRLRPPRLPRPRPRPEWMPRP,-0.00172
22,RRIRCRPPRLPRPRPRPFERPRP,-0.0613
23,RRIRGRPPRLPRPRPRPDMFPRP,1.92
24,RRIRSRPPRLPRPRPRPTHDPRP,0.221
25,RRIRNRPPRLPRPRPRPDTHPRP,-0.105

row,Sequence,shrunken log2 fold change
1,RRIRMRPPRLPRPRPRPDQTPRP,0.0101
2,RRIRQRPPRLPRPRPRPQEQPRP,-0.000777
3,RRIRGRPPRLPRPRPRPHWPPRP,2.63
4,RRIRERPPRLPRPRPRPPPAPRP,0.365
5,RRIRTRPPRLPRPRPRPNCEPRP,0.111
6,RRIRYRPPRLPRPRPRPRNGPRP,0.0466
7,RRIRCRPPRLPRPRPRPSWRPRP,-0.0716
8,RRIRERPPRLPRPRPRPPICPRP,-0.302
9,RRIRKRPPRLPRPRPRPCFEPRP,0.336
10,RRIRSRPPRLPRPRPRPLCSPRP,0.0443
11,RRIRIRPPRLPRPRPRPINVPRP,-0.619
12,RRIRYRPPRLPRPRPRPCLCPRP,-0.453
13,RRIRDRPPRLPRPRPRPCFCPRP,-0.054
14,RRIRARPPRLPRPRPRPECFPRP,0.938
15,RRIRMRPPRLPRPRPRPPQQPRP,0.945
16,RRIRQRPPRLPRPRPRPVPEPRP,0.203
17,RRIRCRPPRLPRPRPRPNKKPRP,0.0294
18,RRIRPRPPRLPRPRPRPTKLPRP,-0.0235
19,RRIRNRPPRLPRPRPRPRCAPRP,0.708
20,RRIRARPPRLPRPRPRPKWFPRP,0.053
21,RRIRFRPPRLPRPRPRPSVIPRP,-0.339
22,RRIRVRPPRLPRPRPRPPMPPRP,0.368
23,RRIRSRPPRLPRPRPRPFLVPRP,-0.361
24,RRIRARPPRLPRPRPRPPFFPRP,0.603
25,RRIRARPPRLPRPRPRPGEQPRP,0.135

row,Sequence,shrunken log2 fold change
1,RRIRQRPPRLPRPRPRPFVAPRP,0.0106
2,RRIRPRPPRLPRPRPRPSCEPRP,-0.386
3,RRIRHRPPRLPRPRPRPEHIPRP,-0.142
4,RRIRTRPPRLPRPRPRPSLIPRP,-0.424
5,RRIRHRPPRLPRPRPRPQYMPRP,-0.252
6,RRIRFRPPRLPRPRPRPIVQPRP,0.00873
7,RRIRHRPPRLPRPRPRPTPVPRP,0.137
8,RRIRMRPPRLPRPRPRPMCCPRP,0.207
9,RRIRARPPRLPRPRPRPQRDPRP,0.225
10,RRIRRRPPRLPRPRPRPPLDPRP,1.24
11,RRIRPRPPRLPRPRPRPPDDPRP,0.142
12,RRIRKRPPRLPRPRPRPEMWPRP,0.719
13,RRIRDRPPRLPRPRPRPYIAPRP,-0.652
14,RRIRARPPRLPRPRPRPQQGPRP,-0.0917
15,RRIRPRPPRLPRPRPRPVTDPRP,-0.393
16,RRIRMRPPRLPRPRPRPPVGPRP,1.06
17,RRIRCRPPRLPRPRPRPAIKPRP,-0.738
18,RRIRERPPRLPRPRPRPALWPRP,0.241
19,RRIRLRPPRLPRPRPRPTPCPRP,0.152
20,RRIRHRPPRLPRPRPRPWGLPRP,-0.00494
21,RRIRHRPPRLPRPRPRPEELPRP,-0.00776
22,RRIRTRPPRLPRPRPRPMTLPRP,-0.028
23,RRIRVRPPRLPRPRPRPENFPRP,0.0199
24,RRIRIRPPRLPRPRPRPMRHPRP,0.158
25,RRIRWRPPRLPRPRPRPKRCPRP,0.0577
